Article PMC5282591, “The differential ability of asparagine and glutamine in promoting the closed/active enzyme conformation rationalizes the Wolinella succinogenes L-asparaginase substrate specificity” (Scientific Reports, 2017)

Tests used:
Experiment in all cases: purified protein
Conditions in all cases: 37 °C
purified protein [1] = substrate: NC(=O)C[C@H](N)C(=O)O; assay type: biochemical, Wolinella succinogenes
purified protein [2] = substrate: NC(=O)CC[C@H](N)C(=O)O
purified protein [3] = substrate: NC(=O)CC[C@H](N)C(=O)O; assay type: biochemical, Wolinella succinogenes

B1: WoA-S121 (Wolinella succinogenes L-asparaginase) (Wolinella succinogenes DSM 1740) (protein)
chain: MAKPQVTILATGGTIAGSGESSVKSSYSAGAVTVDKLLAAVPAINDLATIKGEQISSIGSQEMTGKVWLKLAKRVNELLAQKETEAVIITHGTDTMEETAFFLNLTVKSQKPVVLVGAMRSGSSMSADGPMNLYNAVNVAINKASTNKGVVIVMNDEIHAAREATKLNTTAVNAFASPNTGKIGTVYYGKVEYFTQSVRPHTLASEFDISKIEELPRVDILYAHPDDTDVLVNAALQAGAKGIIHAGMGNGNPFPLTQNALEKAAKSGVVVARSSRVGSGSTTQEAEVDDKKLGFVATESLNPQKARVLLMLALTKTSDREAIQKIFSTY
notes: recombinant, pET28 vector, E. coli BL21-AI; 330 residues per protomer; tetramer (dimer of dimers)
For B1, the Km (purified protein [1]) was 21.7 ± 1.2 µM, the kcat (purified protein [1]) was 97.8 ± 1 s⁻¹ and the kcat/Km (purified protein [1]) was 4.5e+06 ± 250000 M⁻¹ s⁻¹. It also gave a Km (purified protein [2]) of 380 ± 50 µM, a kcat (purified protein [2]) of 1.58 s⁻¹ and a kcat/Km (purified protein [2]) of 4200 M⁻¹ s⁻¹.

B2: WoA-S121 (Wolinella succinogenes L-asparaginase) (Wolinella succinogenes DSM 1740; S121P) (protein)
chain: MAKPQVTILATGGTIAGSGESSVKSSYSAGAVTVDKLLAAVPAINDLATIKGEQISSIGSQEMTGKVWLKLAKRVNELLAQKETEAVIITHGTDTMEETAFFLNLTVKSQKPVVLVGAMRPGSSMSADGPMNLYNAVNVAINKASTNKGVVIVMNDEIHAAREATKLNTTAVNAFASPNTGKIGTVYYGKVEYFTQSVRPHTLASEFDISKIEELPRVDILYAHPDDTDVLVNAALQAGAKGIIHAGMGNGNPFPLTQNALEKAAKSGVVVARSSRVGSGSTTQEAEVDDKKLGFVATESLNPQKARVLLMLALTKTSDREAIQKIFSTY
notes: as for B1
B2 was tested, and the Km (purified protein [3]) was 320 ± 20 µM, the kcat (purified protein [3]) was 11.33 ± 0.11 s⁻¹ and the kcat/Km (purified protein [3]) was 35300 ± 2240 M⁻¹ s⁻¹. For the same protein, the Km (purified protein [1]) was 23.6 ± 1.1 µM, the kcat (purified protein [1]) was 86.7 ± 0.8 s⁻¹ and the kcat/Km (purified protein [1]) was 3.7e+06 ± 170000 M⁻¹ s⁻¹.
